Changes are numbered by the printed parent chain.
Columns and labels:
SADS FP peptide = SADS FP peptide (SADS); assay: peptide ELISA
HCoV-229E S ectodomain = target: T1, HCoV-229E S ectodomain (HCoV-229E); assay: ELISA on coated S
T1 construct: range 17-1142

[1] = target: C-terminally truncated SARS-CoV-2 S protein (pSARS-CoV2-Strunc), ancestral (SARS-CoV-2, UniProt P0DTC2 14-1273); assay: cell-based or functional assay
HKU24 HR2 peptide = HKU24 HR2 peptide (HKU24); assay: peptide ELISA
[2] = target: SARS-CoV-2 S of the Ancestral pseudovirus (pSARS-COV2-Strunc) (SARS-CoV-2 (ancestral), UniProt P0DTC2 14-1254); assay: cell-based or functional assay

B1: fp.001 (antibody, V domains shown)
VH: VQLVESGGGVVQPGRPLRLSCSGSGFIFSNYAMHWVRQAPGKGLEWVAIISFDARNKRYADSVEGRFTISRDNSKNILYLQMNSLRLEDSAVYFCARDLFLSDYDNGVYDPTRGGFDYWGQGTLVTVSS
VL: EIVMTQSPATLSLSPGERATLSCRASQSVNNRLAWYQQKLGQPPRLLISGASTRATGIPARFTGSGSGTEFTLTISSLQSEDFAVYYCQQYHDWPLLSFGGGTKVEIK
In the case of B1, the EC50 (SADS FP peptide) is reported as 0.0255 µg/mL, the EC50 (HCoV-229E S ectodomain) is reported as 0.028 µg/mL and the “Ancestral Pseudovirus IC50” value [1] is reported as 2.19 µg/mL.

B2: hr2.015 (antibody, V domains shown)
VH: QVQLVQSGAEVKKPGASVKVSCKASGYTFSSYYVNWVRQAPGQGLEWLGIINRSGSSTIYAQKFQGRVTMTRDTSTSTVYLELSSLRSEDTAVYYCARDQDHALHWGQGTLVTVSS
VL: QSVLTQPPSVSAAPGQKVTISCSGSSSNIGSNYVSWYQQLPGTAPKLLIYDNSERPSGIPDRFSGSRSGTSATLGITGLQTGDEADYYCGTWDTSLSAWVFGGGTKLTVL
In the case of B2, the EC50 (HKU24 HR2 peptide) is reported as 0.0482 µg/mL and the “Ancestral Pseudovirus IC50” value [1] is reported as 3.83 µg/mL.

B3: hr2.017 (antibody, V domains shown)
VH: EVQLVESGGGLVQPGGSLRLSCAVSGFAFSSSWMHWIRQAPGRGLVWVSRINRDGSTTDYADSVKGRFTISRDNAKATLYLQMNSLRAEDTAVYYCATMGFDYWGQGALVTVSS
VL: DIVMTQSPDSLAVSLGERATINCKSSQNVLYSSNNKNHLSWYQQKPGQPPKLLIYWASTRKSGVPDRFSGSGSGTDFTLTINSLQAEDVAVYYCQQYFSTPNTFGQGTKLEIK
B3 was tested, and the EC50 (HKU24 HR2 peptide) was 0.0176 µg/mL and the “Ancestral Pseudovirus IC50” value [1] was 0.542 µg/mL.

B4: hr2.021 (antibody, V domains shown)
VH: QVQLVQSGAEVKKPGASVKVSCKASEAIFSGSYLHWVRQAPGQGLEWMGIITPSGDKTFYAQRFQGRLTMTRDTSTNTLHMHLSGLNSEDTAMYYCARQADKGGWDYWGQGTLVTVSS
VL: EIVLTQSPGTLSLSPGERATLSCRASQSVTSNYVAWYQQKPGQAPRLLIYGASTRATGIPDRFSGGGSGTDFTLTITRLEPEDFAVYYCQQYGSSPPTFTFGPGTKVDIK
With B4 the EC50 (HKU24 HR2 peptide) was 0.0195 µg/mL and the “Ancestral Pseudovirus IC50” value [1] was 3.02 µg/mL.

B5: hr2.024 (antibody, V domains shown)
VH: QVQLVQSGAEVKKPGASVKVSCKASEDIFTDSYLHWVRQAPGQGLEWMGIITPSGDKTFYAQQFQGRLTMTRDPSTNTLYMFLSGLRSDDTAMYFCARQAEKGGWDYWGHGTLVTVSS
VL: B4 VL with E17Q, A25S, S28T, V29I, V34L, K40R, T54I, G66S, T77S, T100I
With B5 the EC50 (HKU24 HR2 peptide) was 0.0218 µg/mL and the “Ancestral Pseudovirus IC50” value [1] was 0.301 µg/mL.

B6: rbd.031 (antibody, V domains shown)
VH: EVQLVESGGGVVQPGRSLRLSCAASGFTFKTYGMHWVRQAPGKGLEWVAVISYEGSNEYYAESVKGRFTISRDNSKNTLYLHMNSLRAEDTAVYYCAKGEYYYHSSTYYYLDYWGRGTLVTVSS
VL: DIQMTQSPSTLSASVGDRVTITCRASQSISSWLAWYQQKPGKAPKVLIYDASSLQSGVPLRFSGSGSGTEFTLTISSLQPDDFATYYCQQYDTYWTFGQGTKVEIK
With B6 the “Ancestral Pseudovirus IC50” value [2] was 0.862 µg/mL.

B7: rbd.035 (antibody, V domains shown)
VH: EVQLLESGGGLIEPGGSLRLSCAASGFPFNTFAMTWVRQPPGKGLEWVATISSRGDYTFYADFVKGRFSISRDNANNALWLDMSGLRAEDTALYYCAKGESGYDLYLYGLDLWGQGTTVTVSS
VL: DIQMTQSPSSLSASVGDGVTITCRASQNINNYLSWYQKKAGKAPKLLIYGASTLHSGVPSRFSGSGSGTDFTLTISSLQPEDFASYYCQQNSPTPPWTFGQGTKVEIK
In the case of B7, the “Ancestral Pseudovirus IC50” value [2] is reported as 0.00152 µg/mL.

B8: rbd.038 (antibody, V domains shown)
VH: QVQLVQSGAEVKKPGASVKVSCKASGYTFSGYYMHWVRQAPGQGLEWVGWISPTSGGTKYAQKFQGRVTMTRDTSITTVYMELNRLRSDDTAVYYCAREPFPYCTSDICHSNYFYYYAMDVWGQGTTVTVSS
VL: QSALTQPPSASGSPGQSVTISCTGSSSDLGDHNYVSWYQQHPGKAPKVMIYEVSKRPSGVPDRFSGSKSGNTASLTVSGLQAEDEADYYCSSYAGSLYVFGTGTKVTVL
For B8, the “Ancestral Pseudovirus IC50” value [2] was 0.000552 µg/mL.

B9: rbd.043 (antibody, V domains shown)
VH: QVQLVQSGAEVKKPGSSVKVSCKVSGGSFSNYGISWVRQAPGQGLEWMGGIIPLFGPADYAQKVQGRVTITADKSTSTAYMELRSLRSEDTAVYFCARGVEIVATIVGPLVREDHYYYYGMDVWGQGTTVTVSS
VL: not shown
For B9, the “Ancestral Pseudovirus IC50” value [2] was 0.000573 µg/mL.

B10: rbd.045 (antibody, V domains shown)
VH: QVQLQESGPGLVKPSETLSLTCTVSGGAFRSFFWTWIRQPPGKGLEWIGNIYYSGSTNYNPSLKSRVTISQDMSENQFSLKLSSVTAADTAVYYCARSQWLRGNFDHWGQGILVTVSS
VL: NFMLTQPHSVSESPGKTVTISCTATSGYIASNYVQWYQQRPGSAPTTVIYEDNQRPSGVPDRFSGSIDSSSNSASLTISGLKPEDEADYYCQSFDTAYAVFGGGTQLTVL
For B10, the “Ancestral Pseudovirus IC50” value [2] was 0.00557 µg/mL.

B11: rbd.048 (antibody, V domains shown)
VH: EVQLVESGGGLVQPGGSLRLSCAASGFTVSSNYMTWVRQAPGKGLEWVSVIYSGGSTFYTDSVKGRFTISRDNSKNTLYLQMNSLRAEDTAVYYCARDVVYYGMDVWGQGTTVTVSS
VL: DIQMTQSPSSLSASVGDRVTITCRASQSISSYLNWYQQKPGKAPKLLIYAASSLQSGVPSRFSGSGSGTDFTLTISSLQPEDFATYYCQESYSNSPYTFGQGTKLEIK
For B11, the “Ancestral Pseudovirus IC50” value [2] was 0.00275 µg/mL.

B12: fp.006 (antibody, V domains shown)
VH: VQLVESGGGVVQPGGSLRLSCAASGFNFNNYALHWVRQAPGKGLEWVAIISYEARNKKYGVSVMGRFSISRDNSKSIMYLEMNSLRVEDTGVYYCARDLFLSDYDRSGYDPTRGGFDHWGQGTLVTVSS
VL: EIVMTQSPATLSVSPGERATLSCRASQSVSSSLAWYQHRFGQAPRLLISGASTRATGIPGRFSGSGSGTEFTLTISSLQSEDVAVYYCQQYGDWPLVTFGGGTKVEIK
B12 was tested, and the EC50 (SADS FP peptide) was 0.0154 µg/mL and the EC50 (HCoV-229E S ectodomain) was 0.0349 µg/mL.

B13: fp.010 (antibody, V domains shown)
VH: EVQLLESGGGLVQPGGSLRLSCAASGFTFSTYAMNWVRQAPGKGLEWVSAISSSGLSTQYADSVRGRFTISRDTSKNTLYLHMNSLRAGDTAVYYCAKVEYSGYDPRGPFDSWGQGTLVTVSS
VL: DIQMTQSPSTLSASVGDRVTITCRASQSISGWLAWYQQKPGRAPKLLIYKASSLERGVPSRFSGSGSGTEFTLTISSLQPDDFATYYCQEYSSYPLCTFGQGTKLEIK
B13 showed an EC50 (SADS FP peptide) of 0.0644 µg/mL.

B14: fp.011 (antibody, V domains shown)
VH: EVQLLESGGGLVQPGGSLRLSCAGSGFTFNNYAMTWVRQAPGRGLEWVSAISGSGGSSHYADSVKGRFTITRDNSKNTLYLQMNSLRAEDTAVYYCAFIDYYSGWSYYYGLDVWGQGTTVTVSS
VL: EIVLTQSPATLSLSPGERATLSCRASQGVRTYVAWYQQKPGQAPRLLIYDASNRATGIPARFSGSGSGTDFTLTISSLEPEDFAVYYCQQRYNWPLCSFGQGTKLEIK
B14 was tested, and the EC50 (SADS FP peptide) was 0.0276 µg/mL and the EC50 (HCoV-229E S ectodomain) was 0.151 µg/mL.

B15: hr2.020 (antibody, V domains shown)
VH: EVQLVQSGAEVKKPGESLKISCKGSGYRFASHWIGWVRQMPGKGLQWMGIIYPGDSDTKYSPSFQGQVTISADKSINTVYLHWTSLKASDTAVYYCARRPPHLDGGDSPIRFDHWGQGTLVTVSS
VL: QSVLTQPPSASGTPGQRVTISCSGSRSNIGSNDVYWYQQFPGTAPKLLIYRNNQRPSGVPDRFSGSKSGTSASLAISGLRSEDEADYYCATWDDRLTGVFGGGTKLTVV
With B15 the EC50 (HKU24 HR2 peptide) was 0.0329 µg/mL.

— patent US20250382354A1 (INSTITUTE FOR RESEARCH IN BIOMEDICINE IRB, published 2025)
